Source: PMC11219949

Experiments:
[1] = target: Recombinant His-tagged AUREO1c protein (Phaeodactylum tricornutum aureochrome 1c) (Phaeodactylum tricornutum); assay: native MS; UHPLC-native MS (Waters BEH SEC column, 100 mM ammonium acetate, room temperature); 5 uM protein in PBS incubated under blue light (200 umol photons m^-2 s^-1) for 60 min, then cross-linked with 5 uM BS3 and quenched with Tris
[2] = target: Recombinant His-tagged AUREO1c protein (Phaeodactylum tricornutum aureochrome 1c) (Phaeodactylum tricornutum); assay: native MS; UHPLC-native MS (Waters BEH SEC column, 100 mM ammonium acetate, room temperature); 5 uM protein in PBS incubated in the dark for 60 min, then cross-linked with 5 uM BS3 and quenched with Tris

With “Recombinant His-tagged AUREO1c protein (Phaeodactylum tricornutum aureochrome 1c) (natural protein)” the stoichiometry N [1] was 2 and the stoichiometry N [2] was 2.
